Laboratory results: PMC3999109, “Dimerization Interface of 3-Hydroxyacyl-CoA Dehydrogenase Tunes the Formation of Its Catalytic Intermediate” (PLoS ONE, 2014)

T1: cHAD (Caenorhabditis elegans, UniProt P34439, Y209A)
T1 construct: gene F54C8.1; C-terminal GST tag cleaved; pEXS-CG vector, E. coli BL21(DE3)
T1 sequence (P34439 1-298 Y209A): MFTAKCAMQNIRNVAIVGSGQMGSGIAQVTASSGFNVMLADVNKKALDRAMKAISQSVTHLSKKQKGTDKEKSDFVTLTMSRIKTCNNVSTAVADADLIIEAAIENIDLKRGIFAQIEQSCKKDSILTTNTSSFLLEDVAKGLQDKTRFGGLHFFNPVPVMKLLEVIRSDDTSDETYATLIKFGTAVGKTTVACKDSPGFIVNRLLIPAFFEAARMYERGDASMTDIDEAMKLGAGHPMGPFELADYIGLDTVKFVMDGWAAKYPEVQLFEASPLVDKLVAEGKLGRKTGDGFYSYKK

T2: cHAD (Caenorhabditis elegans, UniProt P34439)
T2 construct: gene F54C8.1; C-terminal GST tag cleaved; pEXS-CG vector, E. coli BL21(DE3)
T2 sequence (P34439 1-298): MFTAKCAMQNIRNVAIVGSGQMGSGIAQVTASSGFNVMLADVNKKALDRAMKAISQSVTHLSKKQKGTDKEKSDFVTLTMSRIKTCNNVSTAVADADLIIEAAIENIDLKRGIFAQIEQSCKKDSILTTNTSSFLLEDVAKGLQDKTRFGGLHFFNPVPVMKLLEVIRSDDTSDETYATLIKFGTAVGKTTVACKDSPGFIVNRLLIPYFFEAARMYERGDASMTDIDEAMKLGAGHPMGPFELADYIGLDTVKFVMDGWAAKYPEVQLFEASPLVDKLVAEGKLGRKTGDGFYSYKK

B1: 3-hydroxyacyl-CoA dehydrogenase from C. elegans, wild type (enzyme, Caenorhabditis elegans)
chain: MFTAKCAMQNIRNVAIVGSGQMGSGIAQVTASSGFNVMLADVNKKALDRAMKAISQSVTHLSKKQKGTDKEKSDFVTLTMSRIKTCNNVSTAVADADLIIEAAIENIDLKRGIFAQIEQSCKKDSILTTNTSSFLLEDVAKGLQDKTRFGGLHFFNPVPVMKLLEVIRSDDTSDETYATLIKFGTAVGKTTVACKDSPGFIVNRLLIPYFFEAARMYERGDASMTDIDEAMKLGAGHPMGPFELADYIGLDTVKFVMDGWAAKYPEVQLFEASPLVDKLVAEGKLGRKTGDGFYSYKK
notes: 3-hydroxyacyl-CoA dehydrogenase (cHAD), Caenorhabditis elegans, WormBase WBGene00010035, GenBank CAA80153.1; N-terminal domain 9-194, loop 195-201 and C-terminal domain 202-297 described in the structure; vector pEXS-CG (derived from pET-22b(+)); also called cHAD; wild type cHAD; not shown: GST, C-terminal, cleaved
B2: 3-hydroxyacyl-CoA dehydrogenase from C. elegans, Y209A mutant (enzyme, Caenorhabditis elegans)
chain: MFTAKCAMQNIRNVAIVGSGQMGSGIAQVTASSGFNVMLADVNKKALDRAMKAISQSVTHLSKKQKGTDKEKSDFVTLTMSRIKTCNNVSTAVADADLIIEAAIENIDLKRGIFAQIEQSCKKDSILTTNTSSFLLEDVAKGLQDKTRFGGLHFFNPVPVMKLLEVIRSDDTSDETYATLIKFGTAVGKTTVACKDSPGFIVNRLLIPAFFEAARMYERGDASMTDIDEAMKLGAGHPMGPFELADYIGLDTVKFVMDGWAAKYPEVQLFEASPLVDKLVAEGKLGRKTGDGFYSYKK
notes: 3-hydroxyacyl-CoA dehydrogenase (cHAD), Caenorhabditis elegans, WormBase WBGene00010035, GenBank CAA80153.1; as m1 with Y209A; Made by overlapping PCR from the wild type plasmid, ligated into pEXS-CG (BamHI, EcoRI); also called cHAD Y209A; source: E. coli BL21 (DE3), purified (same procedure as the wild type); not shown: GST, C-terminal, cleaved
B3: 3-hydroxyacyl-CoA dehydrogenase from C. elegans, R204A mutant (enzyme, Caenorhabditis elegans)
chain: MFTAKCAMQNIRNVAIVGSGQMGSGIAQVTASSGFNVMLADVNKKALDRAMKAISQSVTHLSKKQKGTDKEKSDFVTLTMSRIKTCNNVSTAVADADLIIEAAIENIDLKRGIFAQIEQSCKKDSILTTNTSSFLLEDVAKGLQDKTRFGGLHFFNPVPVMKLLEVIRSDDTSDETYATLIKFGTAVGKTTVACKDSPGFIVNALLIPYFFEAARMYERGDASMTDIDEAMKLGAGHPMGPFELADYIGLDTVKFVMDGWAAKYPEVQLFEASPLVDKLVAEGKLGRKTGDGFYSYKK
notes: 3-hydroxyacyl-CoA dehydrogenase (cHAD), Caenorhabditis elegans, WormBase WBGene00010035, GenBank CAA80153.1; as m1 with R204A; Made by overlapping PCR from the wild type plasmid, ligated into pEXS-CG (BamHI, EcoRI); also called cHAD R204A; source: E. coli BL21 (DE3), purified (same procedure as the wild type); not shown: GST, C-terminal, cleaved
B4: 3-hydroxyacyl-CoA dehydrogenase from C. elegans, R204A/Y209A mutant (enzyme, Caenorhabditis elegans)
chain: MFTAKCAMQNIRNVAIVGSGQMGSGIAQVTASSGFNVMLADVNKKALDRAMKAISQSVTHLSKKQKGTDKEKSDFVTLTMSRIKTCNNVSTAVADADLIIEAAIENIDLKRGIFAQIEQSCKKDSILTTNTSSFLLEDVAKGLQDKTRFGGLHFFNPVPVMKLLEVIRSDDTSDETYATLIKFGTAVGKTTVACKDSPGFIVNALLIPAFFEAARMYERGDASMTDIDEAMKLGAGHPMGPFELADYIGLDTVKFVMDGWAAKYPEVQLFEASPLVDKLVAEGKLGRKTGDGFYSYKK
notes: 3-hydroxyacyl-CoA dehydrogenase (cHAD), Caenorhabditis elegans, WormBase WBGene00010035, GenBank CAA80153.1; as m1 with R204A and Y209A; Made by overlapping PCR from the wild type plasmid, ligated into pEXS-CG (BamHI, EcoRI); also called cHAD R204A/Y209A; source: E. coli BL21 (DE3), purified (same procedure as the wild type); not shown: GST, C-terminal, cleaved

Legend:
cHAD [1] = molecular target: T1, cHAD; assay: Trp-NADH FRET titration, ex […] nm, em […] nm, Hill fit; assay type: binding; settings: 10 mM citrate/phosphate pH 7.0, 150 mM NaCl, ambient temperature, 0.58 µM protein, 0-340 µM NADH
cHAD [2] = molecular target: T2, cHAD; assay: difference absorption spectroscopy of the ternary charge-transfer complex, […] nm; assay type: binding; settings: 2 mM NAD+ with 2 mM acetoacetyl-CoA, 0.2 M citrate/phosphate pH 7.0, ambient temperature, 2 mg/ml protein; abortive ternary complex
purified protein = substrate: CC(=O)CC(=O)SCCNC(=O)CCNC(=O)[C@H](O)C(C)(C)COP(=O)(O)OP(=O)(O)OC[C@H]1O[C@@H](n2cnc3c(N)ncnc32)[C@H](O)[C@@H]1OP(=O)(O)O; assay: purified protein; assay type: biochemical, Caenorhabditis elegans; settings: 100 µM NADH (saturating), 0.1 M citrate/phosphate pH 7.0, 0.1 mM dithiothreitol, 298 K, 23 nM protein, AACoA 30-70 µM, 25.0 °C
[3] = molecular target: the molecule itself; assay: SEC-MALS; SEC-LS/UV/RI; WTC-030S5 column, 20 mM MES pH 6.0, 100 mM sodium chloride; 100 µg protein injected, 0.5 ml/min
[4] = molecular target: the molecule itself; assay: cross-linking; EGS, protein:EGS 1:50, on ice 40 min; protein diluted to 2 mg/ml in 0.2 M Na2HPO4, 0.1 M citrate pH 7.0; SDS-PAGE

| Molecule | Trp-NADH FRET titration, ex 270 nm, em 460 nm, Hill fit (cHAD [1]) | difference absorption spectroscopy of the ternary charge-transfer complex, 412 n (cHAD [2]) | Km (purified protein) [µM] | Vmax (purified protein) [µmol/min/mg] | kcat (purified protein) [s⁻¹] | kcat/Km (purified protein) [M⁻¹ s⁻¹] | stoichiometry N [3] | binding result [4] |
| --- | --- | --- | --- | --- | --- | --- | --- | --- |
| NC(=O)C1=CN([C@@H]2O[C@H](COP(=O)(O)OP(=O)(O)OC[C@H]3O[C@@H](n4cnc5c(N)ncnc54)[C@H](O)[C@@H]3O)[C@@H](O)[C@H]2O)C=CC1 [NADH] | Wild type and Y209A mutant cHAD show exactly the same number of Hill coefficient |  |  |  |  |  |  |  |
| NC(=O)c1ccc[n+]([C@@H]2O[C@H](COP(=O)(O)OP(=O)(O)OC[C@H]3O[C@@H](n4cnc5c(N)ncnc54)[C@H](O)[C@@H]3O)[C@@H](O)[C@H]2O)c1 [NAD^+] |  | difference spectroscopy of cHAD·NAD^+·AACoA ternary complex |  |  |  |  |  |  |
| B1 |  |  | 72.0 ± 13.4 | 78 | 45 | 600000 | 2 |  |
| B2 |  |  | 50.4 ± 11.0 | 30 | 17 | 300000 |  | binds |
| B3 |  |  | 83.2 ± 9.7 | 48 | 28 | 300000 |  | binds |
| B4 |  |  | 115.6 ± 24.5 | 18 | 10 | 90000 |  | binds |
